Assay results: paper PMC9250616
Like-named read-outs stand apart in the source and are kept apart here.

Key:
[1] = target: Laminin-111; test: ELISA
[2] = target: Protective antigen (Bacillus anthracis) (UniProt P13423); settings: cited from earlier work
[3] = target: Protective antigen (Bacillus anthracis) (UniProt P13423); settings: cited from earlier work; remark: listed apart in the source

**Q.** For “biotinylated CMG2-AviTag construct (capillary morphogenesis gene 2, anthrax toxin receptor 2) (from UniProt P58335 34-489)”, which Kd [1] is on record?
**A.** Its Kd is 500 nM.

**Q.** Which Kd [2] does the source give for TEM8 (from UniProt Q9H6X2) here?
**A.** The Kd was 10 nM.

**Q.** Which Kd [3] does the source give for CMG2 (from UniProt P58335) here?
**A.** The Kd was 0.2 nM.
